From patent US7378498B2, “Protein encoded by a nucleic acid” (The Johns Hopkins University School of Medicine, priority 1998, dated 2008) come the findings set out here.

Changes are numbered by the printed parent chain. In names and notes the source's numbering stands.

First the molecules themselves.
B1: F7R: point mutant of the Homer EVH1 domain (protein)
chain: MGEQPIRSTRAHVFQIDPNTKKNWVPTSKHAVTVSYFYDSTRNVYRIISLDGSKAIINSTITPNMTFTKTSQKFGQWADSRANTVYGLGFSSEHHLSKFAEKFQEFKEAARLAKEKSQEK
modifications: left off: small tags and cut ends
notes: point mutant of the Homer EVH1 domain
B2: F67S: point mutant of the Homer EVH1 domain (protein)
chain: B1 chain with R7F, F67S
modifications: left off: small tags and cut ends
notes: as for B1
B3: F74A: point mutant of the Homer EVH1 domain (protein)
chain: B1 chain with R7F, F74A
modifications: left off: small tags and cut ends
notes: as for B1
B4: K69A: point mutant of the Homer EVH1 domain (protein)
chain: B1 chain with R7F, K69A
modifications: left off: small tags and cut ends
notes: as for B1
B5: V34M: point mutant of the Homer EVH1 domain (protein)
chain: B1 chain with R7F, V34M
modifications: left off: small tags and cut ends
notes: as for B1
B6: R46C: point mutant of the Homer EVH1 domain (protein)
chain: B1 chain with R7F, R46C
modifications: left off: small tags and cut ends
notes: as for B1
B7: R42E: point mutant of the Homer EVH1 domain (protein)
chain: B1 chain with R7F, R42E
modifications: left off: small tags and cut ends
notes: as for B1
B8: N58A: point mutant of the Homer EVH1 domain (protein)
chain: B1 chain with R7F, N58A
modifications: left off: small tags and cut ends
notes: as for B1
B9: F90S: point mutant of the Homer EVH1 domain (protein)
chain: B1 chain with R7F, F90S
modifications: left off: small tags and cut ends
notes: as for B1
B10: I48A: point mutant of the Homer EVH1 domain (protein)
chain: B1 chain with R7F, I48A
modifications: left off: small tags and cut ends
notes: as for B1
B11: F74L: point mutant of the Homer EVH1 domain (protein)
chain: B1 chain with R7F, F74L
modifications: left off: small tags and cut ends
notes: as for B1
B12: E93K: point mutant of the Homer EVH1 domain (protein)
chain: B1 chain with R7F, E93K
modifications: left off: small tags and cut ends
notes: as for B1
B13: H95A: point mutant of the Homer EVH1 domain (protein)
chain: B1 chain with R7F, H95A
modifications: left off: small tags and cut ends
notes: as for B1
B14: S35V: point mutant of the Homer EVH1 domain (protein)
chain: B1 chain with R7F, S35V
modifications: left off: small tags and cut ends
notes: as for B1
B15: D39A: point mutant of the Homer EVH1 domain (protein)
chain: B1 chain with R7F, D39A
modifications: left off: small tags and cut ends
notes: as for B1
B16: Q72A: point mutant of the Homer EVH1 domain (protein)
chain: B1 chain with R7F, Q72A
modifications: left off: small tags and cut ends
notes: as for B1
B17: N64G: point mutant of the Homer EVH1 domain (protein)
chain: B1 chain with R7F, N64G
modifications: left off: small tags and cut ends
notes: as for B1
B18: R46A: point mutant of the Homer EVH1 domain (protein)
chain: B1 chain with R7F, R46A
modifications: left off: small tags and cut ends
notes: as for B1
B19: N23A: point mutant of the Homer EVH1 domain (protein)
chain: B1 chain with R7F, N23A
modifications: left off: small tags and cut ends
notes: as for B1
B20: L96S: point mutant of the Homer EVH1 domain (protein)
chain: B1 chain with R7F, L96S
modifications: left off: small tags and cut ends
notes: as for B1
B21: S28A: point mutant of the Homer EVH1 domain (protein)
chain: B1 chain with R7F, S28A
modifications: left off: small tags and cut ends
notes: as for B1
B22: R42A: point mutant of the Homer EVH1 domain (protein)
chain: B1 chain with R7F, R42A
modifications: left off: small tags and cut ends
notes: as for B1
B23: S8L: point mutant of the Homer EVH1 domain (protein)
chain: B1 chain with R7F, S8L
modifications: left off: small tags and cut ends
notes: as for B1

The test system of one test is mGluR-evoked Ca^+2 responses in Purkinje cells. The experiment in a line: Fura-2 ratio imaging of quisqualate-evoked Ca2+ mobilization in transfected cerebellar Purkinje cells. It is filed as cell-based, mouse. The settings on record: 1 TM in the internal saline. From the text: The truncated Homer protein used lacks the coiled-coil domain and is unable to form a bridge linking the mGluR at the cell surface with intracellular inositol trisphosphate receptors. The truncated form of Homer protein resembled Homer 1a with the exception of 11 residues at the carboxy-terminal. This form of Homer results in enhanced expression of Homer protein as compared with transfection of Homer 1a in heterologous cells. The Homer protein was introduced into Purkinje cells in primary cerebellar cultures and glutamate induced effects on calcium mobilization was measured.
Embryonic mouse cerebellar cultures were prepared and maintained according to the method of Schilling et al. (Schilling et al., Neuron 7:891 1991). At 4-5 DIV, cultures were transfected with plasmids coding for E-GFP (Clontech) and either full-length Homer 1b or an IEG form of Homer 1. The IEG form of Homer 1 was a 186 amino acid amino-terminal fragment of Homer 1b. Plasmids were purified by cesium banding. Three combinations of the plasmids were transfected. Group I (control), 20 Tg of E-GFP and 40 Tg of pRK5 vector; group II, 20 Tg of E-GFP and 40 Tg of pRK5 Homer 1 IEG; group III: 20 Tg of E-GFP and 40 Tg of pRK5 Homer 1b. Plasmid DNA was mixed with gold particles (0.6 micron), and coated onto plastic tubing. DNA was then ballistically transfected into cells according to the manufacturer's protocol (Helios Gene Gun System, BIO-RAD). After transfection, cultures were returned to the incubator and maintained for an additional […] for a total of 7-8 DIV at the time of use for imaging experiments.
Patch electrodes were attached to the somata of GFP-expressing Purkinje cells and a holding potential of −60 mV was applied. Micropressure electrodes (1 Tm tip diameter) were filled with quisqualate (100 Tm in external saline) and were positioned ˜20 Tm away from large-caliber dendrites. Test pulses were delivered using positive pressure (6 psi, 1 sec). Cells were bathed in a solution that contained (in mM) NaCl (140), KCl (5), EGTA (0.2), MgCl2 (0.8), HEPES (10), glucose (10), tetrodotoxin (0.005), and picrotoxin (0.1), adjusted to pH 7.35 with NaOH, which flowed at a rate of 0.5 ml/m The recording electrode contained CsCl (135), HEPES (10), fura-2 K5 salt (0.2), and Na2-ATP (4), adjusted to pH 7.35 with CSOH. Patch electrodes yielded a resistance of 3-5 MA when measured with the internal and external salines described above.
Fura-2 ratio imaging of intracellular free Ca^2+, was accomplished by measuring the background corrected fluorescence ratio at 340 and 380 nm excitation using a cooled CCD camera system, as previously described (Linden et al., J Neurosci 15:5098 1995). Exposure times were 200 msec per single wavelength image. Experiments were conducted at room temperature. Enhanced GFP is weakly excited by illumination in the 380-400 nm spectrum. Based upon the bandpass characteristics of our 340HT15 and 380HT10 excitation filters and the absorption spectrum of enhanced GFP (Clontech), we estimate that <1% of the signal at 340 nm excitation and <5% of the signal at 380 nm excitation is contributed by GFP, even in those cells where the fura/GFP loading ratio is smallest. This could lead to a small (<5%) systemic underestimation of free calcium concentration that should distribute randomly across experimental groups.
Calcium mobilization in the absence of influx was measure by ratio imaging fura-2 in Purkinje cells bathed in Ca^+2-free external saline and stimulated with a micropressure pulse of quisqualate, a metabotropic glutamate receptor agonist (Linden, Neuron 17:483 1996). […] The decay phase of the Ca^+2 response appeared somewhat slower in neurons transfected with the truncated form. […]
For orientation: Calcium assays in cells follow changes in intracellular calcium, usually with a dye or a luminescent sensor.
On to `C1CCC[C@H]2CCCN3CC[C@@H](CCCCCC[C@@H]4CCCN5CC[C@@H](CC1)O[C@@H]45)O[C@@H]23` [xestospongin C, reference compound], for which the “block of quisqualate-evoked Ca^+2 transient” value is given as “completely blocked”.

The test is the same for the next values; noted with them: 500 TM in the bath.
Take `CC(N)(C(=O)O)c1ccc(C(=O)O)cc1` (single isomer, unassigned; (+)) [(+)-MCPG, reference compound]: the “block of quisqualate-evoked Ca^+2 transient” value is reported as “completely blocked”.

For another test, the system named is GST-mGluR5 or GST-Shank3 (residues 1143-1408). Kind of test: GST pull-down binding of Homer EVH1 point mutants. To be noted: GST pull-down of myc-tagged mutants from HEK293 lysates, relative to wild-type. Also on record: key: wild-type (+); (−) indicates substantially reduced binding relative to wild-type (+).
For the molecule B1, the Binding result is reported as “+”.

As to B2, the Binding result is “−”.

For the molecule B3, the Binding entry is listed as “+”.

In the case of B4, the Binding result is “+”.

Take B5: the Binding result is “+”.

For the molecule B6, the Binding entry is “+”.

With B7, the Binding result is “−”.

Consider B8, for which the Binding entry is listed as “+”.

Take B9: the Binding entry is on record as “+”.

Consider B10, for which the Binding result is reported as “+”.

Turning to B11, the Binding result is “+”.

Consider B12, for which the Binding result is given as “+”.

Consider B13, for which the Binding entry is “+”.

For the molecule B14, the Binding result is “+”.

Turning to B15, the Binding entry is recorded as “−”.

B16: the Binding result was “+”.

Take B17: the Binding entry is “+”.

Consider B18, for which the Binding entry is “−”.

With B19, the Binding result was “+”.

Regarding B20, the Binding entry is “+”.

B21: the Binding result is “−”.

Take B22: the Binding result is given as “+”.

Consider B23, for which the Binding result is “−”.
